Data as given in the nanobody polyreactivity screen of Harvey et al. (2022).

Experiment: yeast display, Sf9 membrane polyspecificity reagent, FACS + sequencing; frameworks hold sequencing errors
Outline: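 Galactose-induced (36–48 hours) yeast carrying a synthetic nanobody display library were exposed to 10% biotinylated, detergent-solubilized Sf9 membrane reagent at 4 °C for 1 hour. FACS followed streptavidin microbead enrichment, using low and high (top ~1%) gates for expression (anti-HA) and reagent binding (streptavidin). Colony PCR, MiSeq 2 × 250 sequencing and CDR-length filtering followed. Labels for polyreactivity reflect the gate of origin.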

## QVQLVESGGGLVQAGGSLRLSCAASGRTSRRNAMGWYRQAPGKERELVAATSGSGTSTYYADSVKGRFTISRDNAKNTVYLQMNSLKPEDTAVYYCNTDTSRRAVQYDYWGQGTQVTVSS
  polyreactivity (PSR sort gate): high polyreactivity

## QVQLVESGGGLVQAGGSLRLSCAASGRIFGDNAMGWYRQAPGKERELVAAITNRGGTTYYADSVKGRFTISRDNAKNTVYLQMNSLRPEDTAVYYCNKTPDRHRRYFGYGYWGQGTQVTVSS
  polyreactivity (PSR sort gate): low polyreactivity

## QVQLVESGGGLDQAGGSLRLSSAASGFTISWYDMGWYRQAPGKERELVAAITYTGGSTYYADSVKGRFTISRDNAKNTVYFQMNSLKPEDTAVYYCNADEPSSNMDYWGQGTQVTVSS
  polyreactivity (PSR sort gate): low polyreactivity

## QVQLVESGGGLVQAGGSLRLSCAASGSIFVGNTMGWYRQAPGKERELVAAITWSGGRTYYADSVKGRFTISRDNAKNNVYLQMHSLKPEDTAVYYLKALAYYIRYYYWGKGTQVTVSS
  polyreactivity (PSR sort gate): high polyreactivity

## QVQLVESGGGLVQAGGSLRLSCAASGRTFYLYAMGWYRQAPGKVRELVAAITRRGGSPYYADSVKGRFTISRDNAKNTVYLQMNSLKPEDTAVSYCAADRPGTGYSDYDYWGQGTQVTVSS
  polyreactivity (PSR sort gate): high polyreactivity

## QVQLVESGGGLVQAGGSLRLSCAASGIIYKYAMGWYRQAPGKERELVAAISSGASTNYADSVKGRFTISRDNAKNTVYLQMNSLKPEDTAVYYCNVTTGASFEFDYWGQGTQVTVSS
  polyreactivity (PSR sort gate): low polyreactivity

## QVQLVESGGGLVQAGGRLRLSGAASGSTFGGYAMGWYRQAPGKERELVASINYGGDTTYYADSVKGRFTISRDNAKNTVYLQMNSLKPEDTAVYYCATDGTTPTPRYAFVRFDHWGQGTQVTVSS
  polyreactivity (PSR sort gate): low polyreactivity

## QVQLVESGGGLVQAGGSLRLSCAATGRSFVHKAMGWYRQAPGKERELVAAISRGGSTYYADSVKGRFTISRDNAKNTVYLQMNSMKPEDTAVYYCAKERRYTGRRSYEFNYWGQGTHVTVSS
  polyreactivity (PSR sort gate): low polyreactivity

## QVQLVESGGGLVQAGGSLRLSCAASGITFTDYAMGWYRPAPGKERELVAAISSRGGSTYYADSVKGRFTISRDHAKNTVYLQMNSLKPEDTAVYYCNARFVRRGSGYDYWGQGTQVTLSS
  polyreactivity (PSR sort gate): high polyreactivity

## QVQLVESGGGLVQAGGSLRLSCAASGSTIIRNTMGWYRKAPGKERELVAAITRSGGSTFYADSVKGRFTISRDNAKNTVYLQMNSLKPEDTAVYYCAAVRSKLYYYWGQGTQVTVSS
  polyreactivity (PSR sort gate): high polyreactivity

## QVQLVESGGGLVQAGGSLRLSCAAYGFTCPLNAMGWYRQAPGKERELVAAISGSSGSTYYADSVKGRFTISRDNAKNTVYLQMNSLKPEDTAVYYCAKKYAWRYYYWGQGTQVTVSS
  polyreactivity (PSR sort gate): high polyreactivity

## QVQLVESGGGLVQAGGSLRLSCAASGSTFSGYAMGWYRQAPGKERELVAAISTDDTYYADSVKGRFTISRDNPKNTVYLQKNSLKPEDTAVYYCAADYLGYYGLEEHWGQGTQVTVSS
  polyreactivity (PSR sort gate): high polyreactivity

## QVQLVESAGGLVQAGGSLRLSCAASGIIFIYYTMGWYRQAPGKERELVAVITTSGDGTYYADSVKGRFTISRDNAKNTVYFQMNSLKPEDTAVYYCAASYSTWVSSRNDYWGQGTQVTVSS
  polyreactivity (PSR sort gate): low polyreactivity

## QVQLVESGGGLVQAGGSLRLSCAASGYTFRYYAMGWYRQAHGKERELVAAITSSTSSTYYADSVKGRFTISRDNAKNTVYLQMNSLKPEDTAVYYCNRVWSTSMDYWGEGTQVTVSS
  polyreactivity (PSR sort gate): high polyreactivity

## QVQLVESGAGLVQAGGSLRLSCAASGITFSKYAMGWYRVARGKDRELVAAISSTASTNYADSVKGRFTISRDNAKNTVYLQMNSQKPDDTAVYYCNDVLFFQLFWTYDDYWGQGSQVTVSS
  polyreactivity (PSR sort gate): low polyreactivity

## QVQLVESGGGLVQAGGSLRLSCAASGSILDIYAMGWSRQAPGKERELVAGMSTTGGSTYYADSVKGRFTISRDNAKNTVYLQMNSLKPEDTAVYYCAKDYGYQGHTRTLYWAYLEYDYWGQGTQVTVSS
  polyreactivity (PSR sort gate): low polyreactivity

## QVQLVESGGGLVQAGGSLRLSCAASGGTFRDYAMGWYRQAPGKERELVASISWTVGGTYADSVKGRFSISRDNAKNTVYLQMNSLKPEDTAVYYCAADYSPSTWYLYYTLYYYWGQGTQVTVSS
  polyreactivity (PSR sort gate): low polyreactivity

## QVQLVESGGGLVQAGGSLRLSCAASGRIFYYNTMGWYRQAPGKERELVARITYSGGRTYYADSVKGRFTISRDNAKNTVYLQMNSLKPEDTAVYYCNAKPRYYQTGGGYWGQGTQVTVSS
  polyreactivity (PSR sort gate): high polyreactivity

## QVQLVESGGGLVQAGGSLRLSCAASGRTFVQYAMGWYRQAPGKERELVARITSVRSTNYADSVKGRFTISRDNAKNTVYLQLNSLKPEDTAVFYCAAPTVVYRSYYYWGQGTQVTVSS
  polyreactivity (PSR sort gate): high polyreactivity

## QVQLVESGGGLVQAGCSLRLTCAASGSIFRTNAMGWSRQAPGKERELVAAITGSGGSTYYADSVKGRFTISRDNAKNTVYLQMNSLKPEDTAVYYCAAEFGSFVSPYNYYFWGLGTQVTVSS
  polyreactivity (PSR sort gate): low polyreactivity

## QVQLVESGGGLVQAGGSLRLSCAASGRIFNLYAMGWYRQAPGKERELVAAISWRGGSTYYADSVKGRFTISRDNAKNTVYLQMNSLKPEDTAVYYCAATFFTYVYRYYYWGQGTQVTVSS
  polyreactivity (PSR sort gate): high polyreactivity

## QVQLVESGRGIVQAGGSLRLSCAASGRIFYLNAMGWYRQAPGKERELVAAITRSAASTHYADSVKGRFTISRDNAKNTVYVQMNSLKPEDTAVYYCAARFWYDYRHYDYWGQGTQVTVSS
  polyreactivity (PSR sort gate): low polyreactivity

## QVQLVESGAGLVHAGGSLRLCCAASGRIFNGYSMGWYRQAPGKERELVAGISYSGGSTYYADSVKGRFTISRDNAKNTVYLQMNSQKPEETAVYYCAKRPYYLGNRYRFDYWGQGTQVSVSS
  polyreactivity (PSR sort gate): high polyreactivity

## QVQLVESGGGLVQAGGSLRLSCAASGRTFGNYAMGWYRQAPGKERELVAAISSGRSTNYADSVKRRFTISRDNGKNTVYLQMNSLKPEDTAVYYCNADWGFPDVKETGVRFDYWGQGTQVTVSW
  polyreactivity (PSR sort gate): low polyreactivity

## QVQLVESGGGLVQAGGSLRLSCAASVRIFEVYAMGWYRQAPGKERELVAAISSGGGSTYYADSVKGRFTISRDNAKNTVFLQMISLKPEDTAVYYCAADEVTKKNSFPRIMDYWGQGTQVTVSS
  polyreactivity (PSR sort gate): high polyreactivity

## QVHLVESGGGLVQAGGSLRLSCAASGSTLVYNDMGWYRQAPGKEREFVAAIRSNDGSTYYADSVKGRFTISRDNAKNTVYLQMNSLKPEDTAVYYCAAERGYPKFGYWGQGTQVTVSS
  polyreactivity (PSR sort gate): low polyreactivity

## QVQLVESGGGLVQAGGSLRLNCAASGSTFGYYAMGWYRQAPGKQRELVAAITSGASTNYADSVKGRFTISRDNAKNTVYLLMNSLKPEDTAVYYCSAGFQTRTPLNEFDYWGQGTQVTVSS
  polyreactivity (PSR sort gate): low polyreactivity

## QVQLVDSGGGLVQAGGSLRLICAASGSTFNYYAMGSYRQAPGKERELVAAISYSSGRTYYADSVKGRFTISRDNSKNTVYLQMNSMKPEDTAVYYCAADRYMVSSSVHSFGYWGQGTQVTVSS
  polyreactivity (PSR sort gate): high polyreactivity

## QVQLVESGGGLVQAGGSLRLSCAASGSIFYTNAMGWDRQAPGKERELVATITSSTGSTNYADSVKGRFTISRDNAKNTVYLQMNSLKPEDTAVYYCAKRDGYWVYYQMDYWGQGTQVTVSS
  polyreactivity (PSR sort gate): low polyreactivity

## QVQLVESGGGLVQAGGSLRLSCAASGRIFGYYAMGWYRQAPGKERELVAAISSSGTSTYYADSVKGRFTISRDNAKNTVYLQMNSLKPEDTAVYYCAAYTYYEGDYWGQGTQVTVSS
  polyreactivity (PSR sort gate): low polyreactivity

## QVQHVESGGGLVQAGGSLRLICAASGSTFGDNAKGRYREAPGKERELVAVITSDTSTYYADSVKGRFTISRDNAKNTVYLQMNSLKPEDTAVYYCAADWGGLWFWYEYWGQGTQVTVSS
  polyreactivity (PSR sort gate): low polyreactivity

## QVQLVESGGGLVQAAGSLRLSCAASGGTFGWYAKGWYRLAHGKEREFLPAIRYSDGNTYYADSVKRRFTISRDNAKNSVYLQMNSLKPEDSAVYYCAADYVYAYIDGEVAEFYYWGPGTQVTVSS
  polyreactivity (PSR sort gate): high polyreactivity

## QVQLVESGGGLVQAGGSLRLSCAASGSTFDPYAMGWYRQAPGKERELVATINTGGDTHYADSVKGRFTISRDNAKNTVYLQMNSLKPEDTAVYYCNADYGKSRWIFDYWGQGTQVTVSS
  polyreactivity (PSR sort gate): low polyreactivity

## QVQLVESGGGLVQAGGSLRLSCAASGRTFYVYDMGWYRQAPGKERELVAAISTNYADSVKGRFTISRDNAKNTVYLQMNSLNPEDTAVYYCAADDIHYVIHAYYSSGVDYWGQGTQVTVSS
  polyreactivity (PSR sort gate): low polyreactivity

## QVQLVESGGGLVQAGGSLRLSCAASGRIFTNYAMGWYRQAPGKERELVAAINWDGGSTYYADSVKGRFTISRDNAKNTVYLQMNSLKPEDTAVYYCAAQGGLSEFDYWGQGTQVTVSS
  polyreactivity (PSR sort gate): low polyreactivity

## QVQLVESGGGLVQAGGSLRLSSAASGSIFRWNAMGWYRQAPGKERELVAVITWRGGRTYYADSVKGRFTISRDNAKNTVYLQMNSLKPEDTAVYYCGKGRLVTTLFGHYATFEYDSWGQGTQVTVSS
  polyreactivity (PSR sort gate): high polyreactivity

## QVQLVESGGGLVHAGGSLRLSCAASGRTFSYYTMAWYRQAPGKERELVAAISGRGGSTYYADSVKGRFTISRDNAKNTVYLQMNSLKPEDTAVYYCNVVKQYLGGVPDFDYWGQGTQVTVSS
  polyreactivity (PSR sort gate): low polyreactivity

## QVQLVESGGGLVQAGGSLRLSCAASGSTFLPNAMGWYRQAPGKERELVATITFDGGSTYYADSVKGRFTISRDNAKNTVYLQMNSLKPEDTAVYYCNTVELYWRGYDYWGQGTQVTVSS
  polyreactivity (PSR sort gate): high polyreactivity

## QVQLVESGGGLVQAGGSLRLSCAASGITFRRNAMGWYRQAPGKERELVAAISLSGTRTYYADSVKGRFTISRDNAKNTVYLQMNSLKPEDTAVYYCAASYYNKFDYWGQGTQVTVSS
  polyreactivity (PSR sort gate): high polyreactivity

## QVQLVESGGGLVQAGGSLRLTCAASGITFGSYAMGWYRQAPGKERELVAAITWRDGSTYYADSVKGRFTISRDNAKNTVYLQMYSLKPEDTAVYYCAAYLGLRYVGDVSDTWRYDYWGQGTQVTVSS
  polyreactivity (PSR sort gate): low polyreactivity

## QVQLVESGGGLVQAGGSLRLSCPASGRIFHRNTMGWYRPAPGKERELVAAIRSGSRTYYADSVKGRFTISRDNAKNTVYLQMNSLKPEDKAVYYCATTYGSPRYDYWGQGTQVTVSS
  polyreactivity (PSR sort gate): high polyreactivity

## QVQLVESGGGLVQAGGSLRLSCAASGITFIGYVMGWYRQAPGKERELVAAISRSGASTYYADSVKGRFTISRDNAKNTVYLQMNSLKPEDTAVYYCATVRYHPAYYYWGQGTQVTVSS
  polyreactivity (PSR sort gate): high polyreactivity

## QVQLVESGGGLVQAGGSLRLSCAASVITFDVYAMGWYRPAPGKERELVAAISSVGGTYYADSVKGRFTISRDNAKNTVYLQMISLKPEDTAVYYCNTDGYVGSIRSGLYIYDYWGQGTQVTVSS
  polyreactivity (PSR sort gate): low polyreactivity
